Holding throughout (assay): MST; protein in a series of gradient dilutions, an equal amount of labeled CP7 peptide added; PBS with 0.05% Tween-20; glass capillary; room temperature; Monolith NT.115
Holding throughout (details): both partners purified

The target of assay [1] is T1, Human FGFR1/CD331 protein (His tag) (human, UniProt P11362 22-376).
T1 construct: human FGFR1/CD331, recombinant protein with His tag, Sino Biological 10616-H08H; Check the vendor's data sheet; source: bought: Sino Biological
T1 sequence (looked up): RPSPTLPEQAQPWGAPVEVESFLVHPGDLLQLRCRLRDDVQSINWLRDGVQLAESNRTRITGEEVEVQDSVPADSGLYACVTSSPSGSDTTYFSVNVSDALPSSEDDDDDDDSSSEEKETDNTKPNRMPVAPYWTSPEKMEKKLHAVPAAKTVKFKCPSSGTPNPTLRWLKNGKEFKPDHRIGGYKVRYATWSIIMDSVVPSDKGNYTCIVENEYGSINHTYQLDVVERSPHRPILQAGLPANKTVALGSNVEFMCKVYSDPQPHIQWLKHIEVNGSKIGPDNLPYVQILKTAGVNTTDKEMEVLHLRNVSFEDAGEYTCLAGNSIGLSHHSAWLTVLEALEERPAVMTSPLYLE

Assay [2] concerns the target T2, Human VEGFR1/FLT-1 protein (Fc tag) (human, UniProt P17948 27-758).
T2 construct: human VEGFR1/FLT-1, recombinant protein with Fc tag, Sino Biological 10136-H02H; Check the vendor's data sheet; source: bought: Sino Biological

The target in assay [3] is T3, Human EGFR/HER1/ErbB1 protein (His tag) (human, UniProt P00533 25-645).
T3 construct: human EGFR/HER1/ErbB1, recombinant protein with His tag, Sino Biological 10001-H08H; Check the vendor's data sheet; source: bought: Sino Biological

Where no end group is shown, it is not given here.

T2 sequence (P17948 27-758): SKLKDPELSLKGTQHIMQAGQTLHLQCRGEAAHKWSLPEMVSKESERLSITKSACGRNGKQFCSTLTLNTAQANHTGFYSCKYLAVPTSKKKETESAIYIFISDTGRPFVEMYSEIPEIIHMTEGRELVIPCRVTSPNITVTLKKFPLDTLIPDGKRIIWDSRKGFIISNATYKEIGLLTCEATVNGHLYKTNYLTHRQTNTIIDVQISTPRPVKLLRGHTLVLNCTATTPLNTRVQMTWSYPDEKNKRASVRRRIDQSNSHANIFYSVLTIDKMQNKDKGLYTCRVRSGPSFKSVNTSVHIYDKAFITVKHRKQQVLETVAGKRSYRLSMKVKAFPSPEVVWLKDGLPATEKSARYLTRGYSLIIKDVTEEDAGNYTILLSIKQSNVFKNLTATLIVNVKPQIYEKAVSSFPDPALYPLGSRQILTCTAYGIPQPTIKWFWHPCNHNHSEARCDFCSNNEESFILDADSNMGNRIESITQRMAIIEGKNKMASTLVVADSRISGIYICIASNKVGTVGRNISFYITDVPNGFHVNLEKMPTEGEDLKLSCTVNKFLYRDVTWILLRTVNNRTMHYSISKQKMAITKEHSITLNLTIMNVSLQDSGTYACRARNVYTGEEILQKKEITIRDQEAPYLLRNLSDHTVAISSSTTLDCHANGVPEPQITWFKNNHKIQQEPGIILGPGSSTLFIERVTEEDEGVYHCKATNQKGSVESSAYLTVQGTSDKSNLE

B1: CP7 peptide (CIQPFYP) (peptide)
peptide: CIQPFYP
modifications: also: labelled, label not named
notes: novel peptide designed and screened by the authors' group; The methods of the MST say only 'the labeled peptide'; source: synthetic peptide: Shanghai GL Biochem Peptide Ltd
In the case of B1, the results for the Kd in assay [1], in assay [2] and in assay [3] were 22.5 nM, 66.1 nM and 389 nM, respectively.

As usually defined, the Kd is the equilibrium constant for the complex coming apart. Read a high Kd as weaker binding.
